What was measured:
[1] = target: HCV E1E2 glycoproteins, genotype 1b (Con1) (Hepatitis C virus genotype 1b (Con1)) (UniProt Q9WMX2); assay: cell-based or functional assay
[2] = target: HCV E1E2 glycoproteins, genotype 2a (J6) (Hepatitis C virus genotype 2a (J6)); assay: cell-based or functional assay
Peptide D3 = details: remark: other sources report otherwise

Sequence of HCV E1E2 glycoproteins, genotype 1b (Con1) (Hepatitis C virus genotype 1b (Con1)) (Q9WMX2 192-383 limits assumed, chain 1 of 2): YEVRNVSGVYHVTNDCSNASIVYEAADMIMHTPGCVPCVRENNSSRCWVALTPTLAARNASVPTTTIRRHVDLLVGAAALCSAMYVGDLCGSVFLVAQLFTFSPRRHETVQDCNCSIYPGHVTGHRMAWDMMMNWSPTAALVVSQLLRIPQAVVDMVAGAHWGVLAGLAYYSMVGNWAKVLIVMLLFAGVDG
Sequence of HCV E1E2 glycoproteins, genotype 1b (Con1) (Hepatitis C virus genotype 1b (Con1)) (Q9WMX2 384-746 limits assumed, chain 2 of 2): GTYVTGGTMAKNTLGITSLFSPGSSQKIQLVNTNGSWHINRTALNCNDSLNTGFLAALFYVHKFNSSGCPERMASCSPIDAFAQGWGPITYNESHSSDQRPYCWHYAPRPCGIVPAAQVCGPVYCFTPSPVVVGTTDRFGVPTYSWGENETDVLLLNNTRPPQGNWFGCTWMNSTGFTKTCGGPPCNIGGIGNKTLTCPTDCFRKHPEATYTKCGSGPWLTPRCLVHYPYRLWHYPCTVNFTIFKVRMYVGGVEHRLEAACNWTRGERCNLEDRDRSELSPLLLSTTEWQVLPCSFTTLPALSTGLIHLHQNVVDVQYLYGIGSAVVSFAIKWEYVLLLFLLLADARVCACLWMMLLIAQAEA

Binder | EC50, neutralization of Con1 HCVpp entry (Huh-7.5, luciferase) [1] [µg/mL] | EC50, neutralization of J6 HCVpp entry (Huh-7.5, luciferase) [2] [µg/mL] | EC50 (read off the curve) (Peptide D3) [µg/mL]
AP33 antibody (as used in Example 2) (antibody, V domains shown) VH: EVQLQESGPSLVKPSQTLSLTCSVTGDSITSGYWNWIRKFPGNKLEYMGYISYSGSTYYNLSLRSRISITRDTSKNQYYLQLNSVTTEDTATYYCALITTTTYAMDYWGQGTSVTVS VL: NIVLTQSPVSLAVSLGQRATISCRASESVDGYGNSFLHWFQQKPGQPPKLLIYLASNLNSGVPARFSGSGSRTDFTLTIDPVEADDAATYYCQQNNVDPWTFGGGTKLEIK | 1.42 | 2.07 | –
chimeric AP33 antibody (Vh/Vl) (antibody, V domains shown) VH: EVQLQESGPSLVKPSQTLSLTCSVTGDSITSGYWNWIRKFPGNKLEYMGYISYSGSTYYNLSLRSRISITRDTSKNQYYLQLNSVTTEDTATYYCALITTTTYAMDYWGQGTSVTVS VL: NIVLTQSPVSLAVSLGQRATISCRASESVDGYGNSFLHWFQQKPGQPPKLLIYLASNLNSGVPARFSGSGSRTDFTLTIDPVEADDAATYYCQQNNVDPWTFGGGTKLEIK | – | – | 0.02

— patent US20120027722A1
